{"source": "patent US20100323904", "about": "“Transcription chip” (published 2010)", "binders": {"B1": {"name": "TRE (dsDNA)", "DNA 1": "GGGAGCTGAGTAAGGTCATGACCTATGCATGCAGGTCATGACCTCATG", "DNA 2": "CATGAGGTCATGACCTGCATGCATAGGTCATGACCTTACTCAGCTCCC", "modifications": "5'-NH2(CH2)12 on top strand, immobilized on chip"}, "B2": {"name": "IgkB (two copies) (dsDNA)", "DNA 1": "GGGAGCTGAGTAGGGGATCCCATGCATGCGGGGATCCCCATG", "DNA 2": "CATGGGGATCCCCGCATGCATGGGATCCCCTACTCAGCTCCC", "modifications": "5'-NH2(CH2)12 on top strand, immobilized on chip"}, "B3": {"name": "CRE (dsDNA)", "DNA 1": "GGGAGCTGAGTATGACGTCAATGCATGCTGACGTCACATG", "DNA 2": "CATGTGACGTCAGCATGCATTGACGTCATACTCAGCTCCC", "modifications": "5'-NH2(CH2)12 on top strand, immobilized on chip"}, "B4": {"name": "AP1 (dsDNA)", "DNA 1": "GGGAGCTGAGTATGACTCATATGCATGCTGACTCATCATG", "DNA 2": "CATGATGAGTCAGCATGCATATGAGTCATACTCAGCTCCC", "modifications": "5'-NH2(CH2)12 on top strand, immobilized on chip"}, "B5": {"name": "PRD II (two copies) (dsDNA)", "DNA 1": "GGGAGCTGAGTAGGGAAATTCCATGCATGCGGGAAATTCCCATG", "DNA 2": "CATGGGAATTTCCCGCATGCATGGAATTTCCCTACTCAGCTCCC", "modifications": "5'-NH2(CH2)12 on top strand, immobilized on chip"}, "B6": {"name": "VDRE (dsDNA)", "DNA 1": "GGGAGCTGAGTAAGGTCAAGGAGGTCAATGCATGCAGGTCAAGGAGGTCACATG", "DNA 2": "CATGTGACCTCCTTGACCTGCATGCATTGACCTCCTTGACCTTACTCAGCTCCC", "modifications": "5'-NH2(CH2)12 on top strand, immobilized on chip"}, "B7": {"name": "RARE (dsDNA)", "DNA 1": "GGGAGCTGAGTAAGGTCACCAGGAGGTCAATGCATGCAGGTCACCAGGAGGTCACATG", "DNA 2": "CATGTGACCTCCTGGTGACCTGCATGCATTGACCTCCTGGTGACCTTACTCAGCTCCC", "modifications": "5'-NH2(CH2)12 on top strand, immobilized on chip"}}, "key": {"NF-kB p50 [1]": {"biological_target": "T1, NF-kB p50 (UniProt P19838 P19838:1-433)", "T1 sequence (P19838 1-433, one chain of several)": "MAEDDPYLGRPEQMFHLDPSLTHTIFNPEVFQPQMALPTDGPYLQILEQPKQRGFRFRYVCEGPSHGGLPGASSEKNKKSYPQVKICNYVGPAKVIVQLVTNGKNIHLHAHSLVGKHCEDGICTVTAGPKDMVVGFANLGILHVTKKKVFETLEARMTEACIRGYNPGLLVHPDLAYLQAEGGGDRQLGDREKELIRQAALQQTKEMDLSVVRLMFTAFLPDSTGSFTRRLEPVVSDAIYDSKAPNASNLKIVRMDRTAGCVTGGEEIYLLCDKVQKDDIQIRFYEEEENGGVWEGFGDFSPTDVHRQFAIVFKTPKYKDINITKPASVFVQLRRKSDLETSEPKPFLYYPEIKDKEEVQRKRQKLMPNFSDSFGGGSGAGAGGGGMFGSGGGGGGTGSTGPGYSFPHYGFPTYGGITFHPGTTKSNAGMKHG", "experiment": "array fluorescence immunoassay, 100 ng/mL", "details": "tags: Promega; chain copies: 2", "description": "(§1) After washing twice with the washing buffer, NFκB diluted at 100 ng/mL with the binding buffer was added, and shaken at room temperature for one hour. After washing three times with the washing buffer, anti-NFκB antibody (RCK) diluted 100 times with antibody diluting buffer was added, and shaken at room temperature for one hour. After washing twice with the washing buffer, FITC-labeled anti-rabbit IgG antibody diluted 50 times with the antibody diluting buffer was added, and shaken at room temperature for one hour. After washing twice with the washing buffer, at a fluorescence wavelength of 535 nm based on Fluorescence of FITC excited with laser at a wavelength of 473 nm, fluorescent intensity was detected by CRBIO II microarray scanner.\nThe oligonucleotides comprising 9 element sequences, PRD II, AP1, p53, VDRE, RARE, CRE, TRE, GRE and ERE which were not labeled with FITC were similarly immobilized on the DLC chip. NFκB (100 ng/mL) was added to the DLC chip on which these 9 transcription factors had been arrayed, and detected by fluorescence immunoassay. As a result, the fluorescence was detected only from the oligonucleotide comprising PRD II which was the NFκB recognition sequence. […] Therefore, it is possible to construct the system in which multiple transcription factors are simultaneously detected in a sample in a small amount by combining antibodies which specifically recognize the transcription factors which is bound to the other element sequences."}, "NF-kB p50 [2]": {"biological_target": "T1, NF-kB p50", "experiment": "ELISA; trapping equivalent to or more than PRD II-2", "details": "tags: Promega; chain copies: 2; label: 5'-FITC on bottom strand", "description": "(§2) The plate was washed twice with the washing buffer, NFκB at various concentrations diluted with the binding buffer was added, and the plate was shaken at room temperature for one hour. The plate was washed three times with the washing buffer, anti-NFκB antibody diluted 2000 times with antibody diluting buffer was added, and the plate was shaken at room temperature for one hour. The plate was washed three times with the washing buffer, POD-labeled anti-rabbit IgG secondary antibody diluted 2000 times with the antibody diluting buffer was added, and the plate was shaken at room temperature for one hour. The plate was washed five times with the washing buffer, and subsequently absorbance at a wavelength of 450 nm based on the absorbance of TMBZ which was a color development substrate of POD was measured by a microplate reader.\n(§3) In order to investigate an ELISA condition for NFκB, the double-stranded DNA comprising the element DNA sequence different in length and copy number were synthesized by the PCR method or a synthetic method, and analyzed. When PRD II-1 comprising one copy of the PRD II sequence was compared with PRD II-2, the immobilized PRD II-2 was more excellent in efficiency of trapping NFκB (FIG. 5). […]"}, "NF-kB p50 [3]": {"biological_target": "T1, NF-kB p50", "experiment": "array fluorescence immunoassay, 100 ng/mL; in ELISA about 30-50% background color before blocking optimisation", "details": "tags: Promega; chain copies: 2", "description": "as §1\nThe oligonucleotides comprising 9 element sequences, PRD II, AP1, p53, VDRE, RARE, CRE, TRE, GRE and ERE which were not labeled with FITC were similarly immobilized on the DLC chip. NFκB (100 ng/mL) was added to the DLC chip on which these 9 transcription factors had been arrayed, and detected by fluorescence immunoassay. As a result, the fluorescence was detected only from the oligonucleotide comprising PRD II which was the NFκB recognition sequence. […]"}, "NF-kB p50 [4]": {"biological_target": "T1, NF-kB p50", "experiment": "ELISA; on-chip ELISA; detected down to 1.0 ng/mL (DLC) and 0.33 ng/mL (GeneDia); 1% BSA, 10 mM HEPES pH 7.5, salmon sperm DNA, 2 mM DTT, room temperature; also fluorescence immunoassay on array", "details": "tags: Promega; chain copies: 2", "description": "as §2, §3"}, "Vitamin D receptor (VDR)": {"biological_target": "T2, Vitamin D receptor (VDR) (UniProt P11473 P11473:1-427)", "T2 sequence": "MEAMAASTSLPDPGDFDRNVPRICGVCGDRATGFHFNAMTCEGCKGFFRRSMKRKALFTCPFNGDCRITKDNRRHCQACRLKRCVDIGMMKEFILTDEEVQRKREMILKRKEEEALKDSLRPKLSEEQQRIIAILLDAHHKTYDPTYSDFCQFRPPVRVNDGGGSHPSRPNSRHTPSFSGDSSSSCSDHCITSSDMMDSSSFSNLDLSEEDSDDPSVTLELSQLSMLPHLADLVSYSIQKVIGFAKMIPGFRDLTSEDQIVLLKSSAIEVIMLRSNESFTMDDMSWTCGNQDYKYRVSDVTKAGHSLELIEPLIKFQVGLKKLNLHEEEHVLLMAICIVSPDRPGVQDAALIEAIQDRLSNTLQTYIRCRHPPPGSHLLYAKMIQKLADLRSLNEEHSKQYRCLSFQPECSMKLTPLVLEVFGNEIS", "experiment": "500 fmol/chip; captured VDR detected by on-chip trypsin digestion and MALDI-TOF MS", "description": "Next, the on-chip digestion of 500 fmol/chip of vitamin D receptor was performed using trypsin (1 μg/mL) on the chip on which the element sequence VDRE which was the recognition sequence of the vitamin D receptor had been immobilized. Subsequently, the sample was added to the MALDI plate, and consequently, the same peptide map as that obtained by trypsin digestion of the sample in the solution was obtained as is the case with NFκB (FIGS. 16 and 17)."}}, "data": [{"binder": "B1", "values": [{"measurement": "binding result", "setting": "NF-kB p50 [1]", "value": "no binding"}]}, {"binder": "B2", "values": [{"measurement": "binding result", "setting": "NF-kB p50 [2]", "value": "binds"}]}, {"binder": "B3", "values": [{"measurement": "binding result", "setting": "NF-kB p50 [1]", "value": "no binding"}]}, {"binder": "B4", "values": [{"measurement": "binding result", "setting": "NF-kB p50 [3]", "value": "no binding"}]}, {"binder": "B5", "values": [{"measurement": "binding result", "setting": "NF-kB p50 [4]", "value": "binds"}]}, {"binder": "B6", "values": [{"measurement": "binding result", "setting": "NF-kB p50 [1]", "value": "no binding"}, {"measurement": "binding result", "setting": "Vitamin D receptor (VDR)", "value": "binds"}]}, {"binder": "B7", "values": [{"measurement": "binding result", "setting": "NF-kB p50 [1]", "value": "no binding"}]}]}
